# Reference: the DeepSol protein solubility set
# Experiment: soluble on expression in E. coli; label from the status in PepcDB or PDB records
row,Sequence,soluble on expression in E. coli
1,MSLSKTYVGSRVRQLRNERGFSQAALAQMLEISPSYLNQIEHDVRPLTVAVLLRITEVFGVDATFFASQDDTRLVAELREVTLDRDLDIAIDPHEVAEMVSAHPGLACAVVNLHRRYRITTAQLAAATEERFSDGSGRGSITMPHEEVRDYFYQRQNYLHALDTAAEDLTAQMRMHHGDLARELTRRLTEVHGVRINKRIDLGDTVLHRYDPATNTLEISSHLSPGQQVFKMAAELAYLEFGDLIDAMVTDGKFTSAESRTLARLGLANYFAAATVLPYRQFHDVAENFRYDVERLSAFYSVSYETIAHRLSTLQRPSMRGVPFTFVRVDRAGNMSKRQSATGFHFSSSGGTCPLWNVYETFANPGKILVQIAQMPDGRNYLWVARTVELRAARYGQPGKTFAIGLGCELRHAHRLVYSEGLDLSGDPNTAATPIGAGCRVCERDNCPQRAFPALGRALDLDEHRSTVSPYLVKQEGHHHHHH,soluble
2,MSLSLKELLKDRLSEEELKLVRRSFEIIGDVVIIEIPDEIMHHSRDIVEAILKRHKHVKTVLRKVGEVDGVYRVARYEPIYGEKTETVVREHGCRFLVDPTKAYYSVKLSGERERIARLVGEGERVLVMFAGVGPYPIVIAKLARPREVVGVELNPHAVEYFRQNVRLNKVEGVVKVIEGDVEEVVPQLSGQFDRVVMPAPYSAENFIHLLRGKVRRGGFVHYYTFDSQNEEKILPEKVRRKFEDEGLEVEVVKMRRCGNFAPYVNRYVLDLRVLEGHHHHHH,soluble
3,MSLSLRLPLAGGGLETFKLSAPRDFPARASGPMNRIAFSAAHVVADPLAASDPWLEAAIDWDHTIAYRQRLWDLGLGVAEAMDTAQRGMGLDWPTSLDLIRRSVEAAKAHGPEALVFSGAGTDHLAPEAARSLDDVIRAYEEQVAAVEKVGGRIILMASRALARIGTSAADYETVYGRILSQVREPVIIHWLGDMFDPALAGYWGTRDLDAAMDTAVAIINAHAAKVDGVKISLLDKDKEIAMRRRLDPAVRMYTGDDFNYAELVAGDAQGYSHALLGIFDAIAPAASAALTALAAGDEAGFHDILAPTVPLSRHIFRAPTRFYKTGVVFMAYLNGHQDHFTMVGGQESARSTLHLAELFRLADRAGLLTDPDLAVQRMRAVLAVRGVEAEGHHHHHH,soluble
4,MSLSLSSIIKNIPKAELHLHIEGSLTPELMWRLAEKHSVSLPYASVEEIEAAYNFEDLQSFLDLYYAGAGVLRDEDDFFALMWEYLTRCHEDNIVHTEIMFDPQTHTERDIGFDIFMPGFLKAMEKAKDEYGISSYLIMSFLRHLPEDAAFDTLSAAEPYYEHITAVGLDSSELGHPPSKFERVFKKAKALGFKIVAHAGEEGPASYIWEAIELLDVDRIDHGVRCQEDEALMDLLKERQIPLTVCPLSNLKLCVINDMKDHNIVQLLDAGLLVTVNSDDPTYFGGFLNDNFEALHQSLGIDEKTVRTLVANSFKASFLPQEQKNQLVEKVLSAEGHHHHHH,soluble
5,MSLSMITLWGRNNSTNVKKVLLTLEELELPYEQILAGREFGINHDADFLAMNPNGLVPLLRDDESDLILWESNAIVRYLAAQYGQKRLWIDSPARRAEAEKWMDWANQTLSNAHRGILMGLVRTPPEERDQAAIDASCKECDALFALLDAELAKVKWFSGDEFGVGDIAIAPFIYNLFNVGLTWTPRPNLQRWYQQLTERPAVRKVVMIPVSEGHHHHHH,soluble
6,MSLSQIVAEVDGYKVTKEELDTLFHVFWKRITHLSSAKPTQEDKRIFLIDYVADLLILKEAKKMGIEVSEKEINDFIRKYVGRKIKEKSVINAVKAEILVEKLVDKLMKEQELNPSEDILRAYYEFYKREFYRPSSVKLLGIYVKSKKEAERISQILKQGEVPSTEDVKVSKPLWYSIPTLPKYIRRNFRTLSVGEVSKPIKINDGYLVFKILDKKPAGFIPFERAKSLVKKMYLKEKRKEVFKKWLSEVLKKYQVRSTGKEGHHHHHH,not soluble
7,MSLSQKNNNELPKQAAENTLNLNPVIGIRGKDLLTSARMVLLQAVRQPLHSARHVAHFSLELKNVLLGQSELRPGDDDRRFSDPAWSQNPLYKRYMQTYLAWRKELHSWISHSDLSPQDISRGQFVINLLTEAMSPTNSLSNPAAVKRFFETGGKSLLDGLGHLAKDLVNNGGMPSQVDMDAFEVGKNLATTEGAVVFRNDVLELIQYRPITESVHERPLLVVPPQINKFYVFDLSPDKSLARFCLRNGVQTFIVSWRNPTKSQREWGLTTYIEALKEAIEVVLSITGSKDLNLLGACSGGITTATLVGHYVASGEKKVNAFTQLVSVLDFELNTQVALFADEKTLEAAKRRSYQSGVLEGKDMAKVFAWMRPNDLIWNYWVNNYLLGNQPPAFDILYWNNDTTRLPAALHGEFVELFKSNPLNRPGALEVSGTPIDLKQVTCDFYCVAGLNDHITPWESCYKSARLLGGKCEFILSNSGHIQSILNPPGNPKARFMTNPELPAEPKAWLEQAGKHADSWWLHWQQWLAERSGKTRKAPASLGNKTYPAGEAAPGTYVHEREGHHHHHH,soluble
8,MSLSQPIKLGIITDRVGAAKPYAEPVLQGAQVAAKELNASGGVLGRPIELLVEDDQGRPDLSATAARKMVDSGVAFILSISWTSATQQAQSVTVETGTPHLAPSNSGDTLTTQIANPNFWQTGPLASSQVSTLLAYARSKSFKRVAIIGDNTGLGQLMTQSFKAGIEAAKIQVVSEEVVPRGANSADAQIQRVRASNPDAIFLTGILAPENTLILRAYRLLGLKAPLLGNFSFSNIQYASVAKGLLDGLVFIDAFDPTKPQVQRFIATYTKAAGTAPDNINAYGYDGVMLVADAIRRAGGTDKLKVRDAMQATKGFVGVLGAQGASYGFANGKRTGFDGDGLVVRIYEGDRQGKVQFTGTREGHHHHHH,soluble
9,MSLSQQVIIFDTTLRDGEQALQASLSVKEKLQIALALERMGVDVMEVGFPVSSPGDFESVQTIARQVKNSRVCALARCVEKDIDVAAESLKVAEAFRIHTFIATSPMHIATKLRSTLDEVIERAIYMVKRARNYTDDVEFSCEDAGRTPIADLARVVEAAINAGATTINIPDTVGYTMPFEFAGIISGLYERVPNIDKAIISVHTHDDLGLAVGNSLAAVHAGARQVEGAMNGIGERAGNCSLEEVIMAIKVRKDILNVHTAINHQEIWRTSQLVSQICNMPIPANKAIVGSGAFAHSSGIHQDGVLKNRENYEIMTPESIGLNQIQLNLTSRSGRAAVKHRMDEMGYKESEYNLDNLYDAFLKLADKKGQVFDYDLEALAFIGKQQEEPEHFRLDYFSVQSGSNDIATAAVKLACGEEVKAEAANGNGPVDAVYQAINRITEYNVELVKYSLTAKGHGKDALGQVDIVANYNGRRFHGVGLATDIVESSAKAMVHVLNNIWRAAEVEKELQRKAQHNENNKETVEGGSHHHHHH,soluble
10,MSLSRAAIVDQLKEIVGADRVITDETVLKKNSIDRFRKFPDIHGIYTLPIPAAVVKLGSTEQVSRVLNFMNAHKINGVPRTGASATEGGLETVVENSVVLDGSAMNQIINIDIENMQATAQCGVPLEVLENALREKGYTTGHSPQSKPLAQMGGLVATRSIGQFSTLYGAIEDMVVGLEAVLADGTVTRIKNVPRRAAGPDIRHIIIATKVHCAISLK,soluble
11,MSLSREPQTYLAQRFDPDALGQPALALQLEARHNDTEVPVHRHRKGQLVVACRGGITCTVPDGLWMVPAGFGVWIPGGIAHSNRVTANGKVCFLFVEPGAARLPSDCCTLALSPLVLELILHLSAQPQDYPHDGPLARLAGVLLELLEQAPTEQLYLPLPDNRGLRRIADELTRAPGDRASMAEWARRVAMSERSLARMVRRETGMTFGQWRQQLQIIIALQQLSAGVSVQRTAEILGYESVSSFIGMFRKALGSPPARYVRDSMEGGSHHHHHH,soluble
12,MSLSRPRSVADHPMINPRLIALPDYPFQRLATLLAGVAPGADPLALSVGEPQHPTPALAGLELARHGDQWRRYPPAAGNERWKAAVTAWLTRRYGLPAAMIDPHAVIPASGTREALYMLGQVLTDGRGEAGERPLVVMPDPLYLPYLGAARMNGATILAVPGSEEGDFLPDIAGLPAATLERAAAVFVCSPANPQGSIVSLESWKTLVGLARRHGFVLVADECYSEIYDDQPPPGVLEACRDLGGSLKNVLVLNSLSKRSNGAGLRSGLIAGDRALIDAFLRLRAYASAGMPLPIMEASAALWDDETHVEANRALYREKIDLAAARLKGMLGFRRPPGGFFLWLDTTPWGETGEQATLRLWRDHGLKVLPGAYMTANPDAGDNPARNRLRLALVHDGPVVARALDRLVAASPHEGHHHHHH,soluble
13,MSLSRRIGIIDTTLRDAQQCLWATRMTAGMMDPIAQALDEAGFDMIDFMAPVQFDVCVRYLREDPFEKARHFRKRFRNTPMRSYCRSKSLVGFSMVPDDMVELWIDCLAANGFSAVGTLDSLLDVDNMKVSVGRAKKIGIKSIGALVFCESPLHTDALYAGTAAELVRCGVDGIMLKDSGALLTIERIRTLIPALRAAVGDIPIEVHSHSNTGLVQRVYLDAADLGIDQLHTSIAPLAGGVAQPSIQNMTRNLAQRGYRTDVDMARVEEISAYLHRLAARYDFPLGKEGHHHHHH,not soluble
14,MSLSRVRLVIAQCTVDYIGRLTAHLPSARRLLLFKADGSVSVHADDRAYKPLNWMSPPCWLTEESGGQAPVWVVENKAGEQLRITIEGIEHDSSHELGVDPGLVKDGVEAHLQALLAEHIQLLGEGYTLVRREYMTAIGPVDLLCSDERGGSVAVEIKRRGEIDGVEQLTRYLELLNRDSVLAPVKGVFAAQQIKPQARILATDRGIRCLTLDYDTMRGMDSGEYRLFEGHHHHHH,soluble
15,MSLSSARADRLRSHQTRVIGLILTDIANPFYTEIAAGTIDAARARGYEVFLAHTQEDPQTLRSIVDTMIARQVDGVVITVLHPDDGEVIRSLRSARIPLVQLSRRIQRVDADFVGIDDRAAASEMMEHVVTHGYQDIVTVVGPRTSSASAAREEGFIRTAEAHGIRTVSSQRISTYLSERGGYEAVEQVLARKSLPRVIVCGSDVIALGAISALRERSLNVPDDVAVTGFDGLYPGPLVELTTINQPRREMAEQSIELLTRRIEGAGGSYQSVLRAHQLRIGTTCGCPRMRPHLAAEGHHHHHH,not soluble
16,MSLSSEPVVVAILPHAAELAEKIAAKIGGRVDLRGSDFTDTGAHLRSLFLAGHPIVGIGAAGIYIRSLASVLGDKNSEPPVLAVSEDARNIVPLLGGHHGANGLAKEIADYLETAAAVTTSGDVAMGVALDEPPQGWKLENPEDAKGAMAALLGGAKAQQSGNGDWLTPLSSRVEFSETDADAPVVLSVEGAAPLIYRRQSFALGLGCARGCDPDELIALVAKTLADNGRSIHEVAMVGSIDIKSDEAAIHAVARHLGVPARFFDADELNSVTPRLANPSEVVRAEVGVAGVSEGAALVMAGVSGALVIEKTKTANATCALARISQDGSEGHHHHHH,soluble
17,MSLSSLLIDLKGKELEQEEVELLSHPLVAGLILFTRNFENREQIQELIRSVRQRVKKPLLITVDQEGGRVQRFRDGFTMLPSMQAFQETLSATEQVSFAKEAGWQMAAEMIALDIDLSFAPVLDLGHECRAIGDRSFSSDVKSAVNLATAFIDGMHQAGMASTGKHFPGHGHVLADSHLETPYDDRTKEEIFSGDLQPFQQLISQNKLDAIMPAHVIYSQCDSQPASGSKYWLKEILRKKLNFQGTIFSDDLGMKGAGVMGNFVERSKKALNAGCDLLLLCNEREGVIQVLDNLKLTENQPHFMARQARLQSLFKRRVINWNDLISDQRWRLNYQKLADIQSRWLDIQAAKNDEGGSHHHHHH,soluble
18,MSLSSWVSESSTETDKYGKSSEGKLYGKSRLSAHPGGIFEPVPYMTSAISLFEYIRERFGYGIEILHDVHERISPIQGVWFAKQVEKYRLFFLEDLFSPEDQHYFEMVRQQCATPIAMGELYVSPNDVIPMMKNKLIDFIRIHISDIGGITPARKIATFGELMGIKTAWHGPGDTSPVGHAANLALNLNSQNFGIQEAAIFGENSKEVFPGCPELRDGMMWSNGKPGLGIDINEELAKKFPFKERVWGGAWEGHHHHHH,not soluble
